What was measured:
CTLA4/His [1] = target: T1, CTLA4/His (human, UniProt P16410 36-161); assay: SPR (Biacore), after AAPH oxidation, analyte CTLA4/His
T1 construct: not shown: His tag
T1 sequence (looked up): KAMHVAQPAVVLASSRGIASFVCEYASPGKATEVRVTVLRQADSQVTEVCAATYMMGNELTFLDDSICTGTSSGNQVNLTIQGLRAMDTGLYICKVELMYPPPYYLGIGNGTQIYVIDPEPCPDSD

CTLA4/His [2] = target: T1, CTLA4/His; assay: SPR (Biacore), untreated control of the oxidation pressure test, analyte CTLA4/His
[3] = target: T2, CTLA-4 on the functional cells of the Promega anti-CTLA-4 blocking assay kit (UniProt P16410 36-223, limits assumed); assay: cell-based or functional assay
T2 sequence (looked up): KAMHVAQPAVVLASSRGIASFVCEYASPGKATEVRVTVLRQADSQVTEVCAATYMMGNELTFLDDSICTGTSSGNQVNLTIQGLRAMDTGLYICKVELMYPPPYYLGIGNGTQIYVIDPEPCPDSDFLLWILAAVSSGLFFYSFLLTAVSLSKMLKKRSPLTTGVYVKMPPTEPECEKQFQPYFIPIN

CTLA4/His [4] = target: T1, CTLA4/His; assay: SPR, Biacore 8K, antibody captured on the chip, antigen as analyte, 1:1 binding model
[5] = target: T3, human CTLA4-Fc recombinant protein (human, UniProt P16410 36-161); assay: kinetics of the prokaryotic expression product, analyte CTLA4/Fc, 1:1 binding model
T3 construct: not shown: Fc part
T3 sequence (looked up): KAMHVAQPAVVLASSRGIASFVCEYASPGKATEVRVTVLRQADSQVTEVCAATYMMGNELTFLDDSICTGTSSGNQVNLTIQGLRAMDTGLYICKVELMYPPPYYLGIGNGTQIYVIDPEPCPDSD

B1: Chimeric antibody AAPH (chimeric antibody after the oxidation pressure test) (antibody, V domains shown)
VH: QVHLQQSGDVLVKPGASVNLSCKASGYTFTSYWINWIKQRPGQGLEWIGRIAPGSGTTYYNEMFTGKATLTVVTSSTTAYIQLSSLSFEDSAVYFCARGDYFDYWDQGTTLTVSS
VL: QIVLTQSPAIMSASPGGKVTITCSASKSVSYIHWFQQKPGTSPKLLIYDTSTLASGVPPRFSGSGSGPSYSLTISRMEAEDAATYYCQQRTTYPLTFGGGTKLEVR
modifications: Met 63 oxidised in 62.144% of the sample (AAPH, 40 C, 24 h)
notes: Same protein as the chimeric antibody, treated with AAPH; also called Chimeric antibody AAPH-24 h
CTLA4/His [1]
  Kd: 48.7 pM
  koff: 2.78e-05 s⁻¹
  kon: 570000 M⁻¹ s⁻¹

B2: AH01674 humanized anti-human CTLA4 monoclonal antibody (human IgG1/kappa) (antibody, V domains shown)
VH: QVQLVQSGAEVKKPGASVKVSCKASGYTFTSYWINWVRQAPGQGLEWMGRIAPGSGTTYYNEMFTGRVTMTRDTSTSTAYMELSSLRSEDTAVYYCARGDYFDYWGQGTMVTVSS
VL: DIQLTQSPSFLSASVGDRVTITCSASKSVSYIHWYQQKPGKAPKLLIYDTSTLASGVPPRFSGSGSGPEFTLTISSLQPEDFATYYCQQRTTYPLTFGQGTKLEIK
notes: also called AH1674
CTLA4/His [2]
  Kd: 39.5 pM
  koff: 2.98e-05 s⁻¹
  kon: 753000 M⁻¹ s⁻¹
[3]
  EC50 (µg/ml), luciferase reporter, Promega anti-CTLA-4 blocking assay (CD80/CD86 aAPC/Raji cells with functional cells expressing CTLA-4): 1.11 µg/mL
CTLA4/His [4]
  Kd: ≤ 14.2 pM
  koff: ≤ 1e-05 s⁻¹
  kon: 705000 M⁻¹ s⁻¹

B3: AH01674 (prokaryotic expression antibody product, CBM library) (Fab, V domains shown)
VH: QVQLVQSGAEVKKPGASVKVSCKASGYTFTSYWINWVRQAPGQGLEWMGRIAPGSGTTYYNEMFTGRVTMTRDTSTSTAYMELSSLRSEDTAVYYCARGDYFDYWGQGTMVTVSS
VL: DIQLTQSPSFLSASVGDRVTITCSASKSVSYIHWYQQKPGKAPKLLIYDTSTLASGVPPRFSGSGSGPEFTLTISSLQPEDFATYYCQQRTTYPLTFGQGTKLEIK
notes: Prokaryotic expression product from Phage-Fab / FASEBA-Fab plasmids
[5]
  Kd: 15.4 pM

B4: AH01696 (prokaryotic expression antibody product, 5BM library) (Fab, V domains shown)
VH: VQLVQSGAEVVKPGASVKVSCKASGYTFTSYWINWIRQAPGQGLEWIGRIAPGSGTTYYNEMFTGRVTLTRDTSTSTAYMELSSLRSEDTAVYYCARGDYFDYWDQGTMVTVSS
VL: DIQLTQSPSFLSASVGDRVTITCSASKSVSYIHWFQQKPGKAPKLLIYDTSTLASGVPSRFSGSGSGTEYTLTISSLQPEDFATYYCQQRTTYPLTFGQGTKLEIK
notes: as for B3
[5]
  Kd: 0.00373 pM

B5: AH01674 AAPH (AH01674 after the oxidation pressure test) (antibody, V domains shown)
VH: QVQLVQSGAEVKKPGASVKVSCKASGYTFTSYWINWVRQAPGQGLEWMGRIAPGSGTTYYNEMFTGRVTMTRDTSTSTAYMELSSLRSEDTAVYYCARGDYFDYWGQGTMVTVSS
VL: DIQLTQSPSFLSASVGDRVTITCSASKSVSYIHWYQQKPGKAPKLLIYDTSTLASGVPPRFSGSGSGPEFTLTISSLQPEDFATYYCQQRTTYPLTFGQGTKLEIK
modifications: Met 63 oxidised in 75.616% of the sample (AAPH, 40 C, 24 h)
notes: Human IgG1/kappa, treated with AAPH; also called AH01674 AAPH-24 h
CTLA4/His [1]
  Kd: 30.5 pM
  koff: 2.19e-05 s⁻¹
  kon: 719000 M⁻¹ s⁻¹

B6: AH01696 humanized anti-human CTLA4 monoclonal antibody (human IgG1/kappa) (antibody, V domains shown)
VH: VQLVQSGAEVVKPGASVKVSCKASGYTFTSYWINWIRQAPGQGLEWIGRIAPGSGTTYYNEMFTGRVTLTRDTSTSTAYMELSSLRSEDTAVYYCARGDYFDYWDQGTMVTVSS
VL: DIQLTQSPSFLSASVGDRVTITCSASKSVSYIHWFQQKPGKAPKLLIYDTSTLASGVPSRFSGSGSGTEYTLTISSLQPEDFATYYCQQRTTYPLTFGQGTKLEIK
CTLA4/His [4]
  Kd: 42.9 pM
  koff: 2.77e-05 s⁻¹
  kon: 646000 M⁻¹ s⁻¹

B7: AH01695 (prokaryotic expression antibody product, 5BM library) (Fab, V domains shown)
VH: QVQLVQSGAEVKKPGASVKVSCKASGYTFTSYWINWVRQAPGQGLEWMGRIAPGSGTTYYNEMFTGRVTLTRDTSTSTAYIELSSLRSEDTAVYFCAIGDYFDYWGQGTMVTVSS
VL: DIQLTQSPSFLSASVGDRVTITCSASKSVSYIHWYQQKPGKAPKLLIYDTSTLASGVPSRFSGSGSGTEFTLTISSLQPEDFATYYCQQRTTYPLTFGQGTKLEIK
notes: as for B3
[5]
  Kd: 0.0106 pM

B8: AH01672 (prokaryotic expression antibody product, CBM library) (Fab, V domains shown)
VH: QVQLVQSGAEVKKPGASVKVSCKASGYTFTSYWINWVKQAPGQGLEWMGRIAPGSGTTYYNEMFTGRVTMTRDTSTSTAYMELSSLRSEDTAVYYCARGDYFDYWDQGTMVTVSS
VL: DIQLTQSPSFLSASVGDRVTITCSASKSVSYIHWYQQKPGKAPKLLIYDTSTLASGVPPRFSGSGSGPEFSLTISSLQPEDFATYYCQQRTTYPLTFGGGTKLEIK
notes: as for B3
[5]
  Kd: 14.5 pM

Reference: patent US20210301021A1 (NANJING GENSCRIPT BIOTECH, published 2021)
